# Results as given in patent US20190352644A1, “INHIBITION OF MITOCHONDRIAL HYPOXIC STRESS INDUCED RNA EDITING BY APOBEC3G CYTIDINE DEAMINASE” (Health Research, Inc., priority 2015, published 2019).
# How the values were obtained:
# [1] = tested on: monocyte enriched peripheral blood mononuclear cells (MEPs); experiment: SDHB c.136C>U RNA editing in interferon-treated MEPs (RT-PCR); type: cell-based, human; settings: normoxic or hypoxic MEPs, 24 hours; IFN1 600 U per ml, IFNγ 200 U per ml; vs untreated
# Excerpt: The TLA-HEK293T™ 293T human embryonic kidney cell-line was obtained from Open Biosystems® (Huntsville, Ala.). Peripheral blood mononuclear cells of anonymous platelet donors were isolated from peripheral blood in Trima Accel™ leukoreduction system chambers (Terumo BCT®, Lakewood, Colo.) after thrombocytapheresis, in accordance with a protocol approved by the institutional review board of Roswell Park Cancer Institute. A density gradient centrifugation method using polysucrose-containing Lymphocyte Separation Medium (Mediatech®, Manassas, Va.) was used for PBMC isolation. […]
# For hypoxia, cells were cultured under 1% O2, 5% CO2 and 94% N2 in an Xvivo™ System (Biospherix®, Lacona, N.Y.). […] Differential viability of MEPs after 1-day culture in normoxia versus hypoxia was not observed as evaluated by Trypan blue stain. […]
# SDHB gene expression and c.136C>U RNA editing was quantified by RT-PCR. […]
# NK cells = experiment: TM7SF3 C>U RNA editing in NK cells; type: cell-based, human; settings: cellular crowding with hypoxia, IFN-γ 50 ng/ml
# Description: The HuT78, JVM3 and NK-92 cell-lines were obtained from ATCC. Hut 78 cells were cultured in IMDM (ATCC) containing 20% Fetal Bovine serum (FBS) (Sigma-Aldrich), JVM3 cells were cultured in RPMI (ATCC) containing 10% FBS and NK-92 cells were cultured in Alpha Minimum Essential medium without ribonucleosides and deoxyribonucleosides (Life Technologies) but with 2 mM L-glutamine and 1.5 g/L sodium bicarbonate as well as 0.2 mM inositol, 0.1 mM 2-mercaptoethanol, 0.02 mM folic acid, 500 U/ml IL-2 (Aldesleukin—a kind gift from Novartis), 12.5% horse serum (ATCC) and 12.5% FBS. […]
# Total RNA was isolated and reverse transcribed to generate cDNAs. […] To quantify RNA editing level, the major and minor chromatogram peak heights at putative edited nucleotides were quantified with Sequencher 5.0/5.1 software (Gene Codes, MI). […] For quantitative PCR to assess APOBEC3G and APOBEC3F gene expression, reactions using LightCycler™ 480 Probes Master and SYBR™ Green I dye were performed on a LightCycler™ 480 System (Roche). Quantification cycle (Cq) values were calculated by the instrument software using the maximum second derivative method, and the mean Cq value of duplicate PCR reactions was used for analysis.
molecule,measurement,setting,value
"IFNγ: Human IFNγ (PBL Assay Science; PeproTech in Example 3) (protein, UniProt P01579 24-161, looked up) Interferon gamma: QDPYVKEAENLKKYFNAGHSDVADNGTLFLGILKNWKEESDRKIMQSQIVSFYFKLFKNFKDDQSIQKSVETIKEDMNVKFFNSNKKKRDDFEKLTNYSVTDLNVQRKAIHELIQVMAELSPAAKTGKRKRSQMLFRG",increase of SDHB c.136C>U RNA editing level,[1],~3 fold
same,RNA editing in TM7SF3,NK cells,did not further increase
